Data: paper PMC7990337, “Architecture and mechanism of metazoan retromer:SNX3 tubular coat assembly” (Science Advances, 2021)

Target: zebrafish VPS26 (zebrafish, UniProt Q6TNP8 1-327)
Experiment: cryo-EM structure; cryo-electron tomography with subtomogram averaging of coats reconstituted on PI(3)P- and DGS-Ni-NTA-containing liposomes: 2.5 uM core trimer, 3.5x molar excess of adaptor (SNX3 or Grd19) and the corresponding His-tagged cargo peptide (Wls or Kex2), liposomes 0.16 mg/ml, 4 hours at 22°C in buffer A (20 mM Hepes-KOH pH 7.5, 200 mM NaCl, 1 mM TCEP)
Conditions: both partners purified

binding result: binds
B1: His6Wls (peptide, UniProt Q6DID7 493-541, looked up)
chain: APSHKNYGEDQSNGDLGVHSGEELQLTTTITHVDGPTEIYKLTRKEAQE
notes: Wntless (Wls), residues 493 to 541 (C-terminal domain), UniProt Q6DID7; Cloned in pRSFDuet-1; attached to the liposome membrane (liposomes contain DGS-Ni-NTA); also called Wntless cargo peptide; Wls cargo tail peptide; source: E. coli BL21(DE3), purified (Ni-NTA, Superdex Peptide 10/300)
